Assays:
[1] = target: T1, Recombinant human Gal3 (rhGal3) (TrueBinding, #QC200361) (human, UniProt P17931 2-250); test: cell-based or functional assay
[2] = target: T1, Recombinant human Gal3 (rhGal3) …; test: cell-based or functional assay; remark: listed apart in the source
[3] = target: T2, human Gal3 protein (recombinant human Galectin-3) (human, UniProt P17931 2-250); test: SPR (Carterra LSA), antibody immobilised on HC200M chip, hGal3 injected
T2 construct: also called hGal3; hGAL3

[4] = target: T2, human Gal3 protein (recombinant human …)
[5] = target: T2, human Gal3 protein (recombinant human …); test: ELISA, hGal3 coated, receptor in solution
[6] = target: T1, Recombinant human Gal3 (rhGal3) …; test: cell-based or functional assay; remark: listed apart in the source
Throughout, for % inhibition of CD62L shedding: test concentration or dose not given here.
Throughout, for % inhibition of IL-6 secretion: test concentration or dose not given here.
Throughout, for % inhibition of TNFα secretion: test concentration or dose not given here.

T2 sequence (P17931 2-250 limits assumed): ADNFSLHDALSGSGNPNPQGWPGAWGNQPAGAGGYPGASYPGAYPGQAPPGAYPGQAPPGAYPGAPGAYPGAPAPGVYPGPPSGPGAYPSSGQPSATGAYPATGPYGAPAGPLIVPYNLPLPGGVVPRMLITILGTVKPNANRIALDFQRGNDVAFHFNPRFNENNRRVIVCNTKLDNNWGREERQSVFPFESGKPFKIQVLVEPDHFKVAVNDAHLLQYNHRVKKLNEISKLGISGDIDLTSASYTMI

Binder	% inhibition of CD62L shedding [1]	% inhibition of IL-6 secretion [2]	% inhibition of TNFα secretion [2]	binding result [3]	% blocking [4]	binding result [5]	IC50 of blocking IL-6 secretion by HL60-derived neutrophils (rhGal3 + LPS) [6]	IC50 of blocking TNFα secretion by HL60-derived neutrophils (rhGal3 + LPS) [6]
846.2B11 (antibody, human IgG4 S228P, kappa, V domains shown) VH: QVQLQQSGPELVRPGALVKISCKASGYTFTSYDINWVKQRPGQGLEWIGWIYPGDGSTKYNEKFKGKATLTADKSSSTAYMQLSSLTSENSAVYFCAREAASNAMDYWGQGTSVTVSS VL: DIVLTQSPASLGVSLGQRATISCRASKSVSTSGYSYMHWYQQKPGQPPKLLIYLASILESGVPARFSGSGSGTDFTLNIHPVEEEDAAIYYCQHSRELPLTFGAGTKLELKR	8.2%	-0.5%	-98%	no binding				
24D12.2H9 (antibody, human IgG4 S228P, kappa, V domains shown) VH: QVQLKQSGPGLVQPSQSLSITCTVSGFSLTSYGVHWVRQAPGKGLEWLGVIWSGGSTDYNAAFMSRLSISKDNSKSQVFFKMNSLQADDTAIYYCAKSPDGYDVAWFGYWGQGTLVTVSA VL: DIVMTQSHKFMSTSVGDRVSITCKASQDVRTAVAWYQQKPGQSPKLLIYWASTRHTGVPDRFTGSGSGTDFTLTLSNVQSEDLADYFCQQYSSYPWTFGGGTKLEIKR	73.1%	22.3%	46.5%		55%			
849.4B2 (antibody, V domains shown) VH: DGKLQESGPGLVKPSQSLSLTCSVTGYSITSGYYWNWIRQFPGNKLEWMGHISYDGRNNYNPSLKNRISITRDTSKNQFFLKLNSVTTEDTATYYCAGYDFLWYFDVWGTGTTVTVSS VL: not shown	6.2%	-9.8%	-162%	no binding				
6H6.2D6 (antibody, human IgG4 S228P, kappa, V domains shown) VH: QIQLVQSGPELKKPGETVKISCKASGYTFTTYGMSWVKQAPGKGLKWMAWINTYSGVPTYADDFKGRFAFSLETSASTAYLQINNLTNEDTATYFCARGPYAMDYWGQGTSVTVSS VL: DIQMTQTTSSLSASLGDRVTISCSASQGISNYLNWYQQKPDGTVKLLIYYTSSLHSGVPSRFSGSGSGTDYSLTISNLEPEDIATYYCQQYSELPYTFGSGTKLEIKR					> 95%			
2D10.2B2 (antibody, mouse IgG2a, V domains shown) VH: QVQLQQSGPELVKPGASVKISCKASGYTFTDYYINWVKQRPGQGLEWIGWIYPGSNDTKYNEKFKGKATLTVDTSSSTAYMQLGSLTSEDSAVYFCANYFGCSGWFFDVWGTGTTVTVSS VL: DIVMTQAAFSNPVTLGTSASISCRSSKSLLHSDGITYLYWYLQRPGQSPQLLIYRMSNLASGVPDRFSGSGSGTDFTLRISRVEAEDVGVYYCAQMIEFPLTFGAGTILELKR					> 95%			
847.21B11 (antibody, V domains shown) VH: QVQLKQSGPGLVAPSQSLSITCTVSGFSLTSYGVHWVRQPPGKGLEWLGIIWAGGSTNYNPALMSRLSISKDKSKSQVFLKMNSLKTDDTAMYYCARDRASLLRPGAMDYWGQGTSVTVSS VL: DIVMTQSQKFMSTSVGDRVSVTCKASQNVGINVAWYQQKPGQSPKALIYSASYRYSGVPDRFTGSGSGTDFTLTISNVQSEDLAEYFCQQYNSYPYTFGGGTKLEMK	16.4%	27.3%	-136%	no binding				
849.4F12 (antibody, V domains shown) VH: QVQLKESGPGILQPSQTLSLTCSFSGFSLSTFGMGVGWIRQPSGKGLEWLAHIWWDDDKHYNPALKSRLTISKDTSKNQVFLRIANVDTADNATYYCARIDYGDYVGFAYWGQGTLVTVSA VL: DILLTQSPSSMSVSLGDTVSITCHASQGINSNIGWLQQKPGKSFKGLIYHGTNLEDGVPSRFSGSGSGADYSLTISSLESEDFADYYCVQYDQFPWTFGGGTKLEIK	17.9%	1.2%	-81.5%	no binding				
846T.4C9 (antibody, V domains shown) VH: EVQLQQSGPELVKPGASVKMSCKASGYSFTNYIMHWVKQKPGQGLEWIGYINPYNDGTKYNEKFKGKATLTSDKSSSTAYMELSSLTSEDSAVYYCARLLFYYAMDYWGQGTSVTVSS VL: DILMTQTPSSMSVSLGDTVSITCHASQGISSNIGWLQQKPRKSFKGLIYYGTNLEDGVPSRFSGSGSGADYSLTISSLESEDFADYYCVQYDQFPWTFGGGTKLEIK	11.2%	-38.3%	-299%	no binding				
recombinant human CD147, 6xHis-tagged (R&D Systems, 972-EMN) (receptor, not shown: small tags and cut ends, also called hCD147; EMMPRIN) AAGTVFTTVEDLGSKILLTCSLNDSATEVTGHRWLKGGVVLKEDALPGQKTEFKVDSDDQWGEYSCVFLPEPMGTANIQLHGPPRVKAVKSSEHINEGETAMLVCKSESVPPVTDWAWYKITDSEDKALMNGSESRFFVSSSQGRSELHIENLNMEADPGQYRCNGTSSKGSDQAIITLRVRSHLAAL						binds		
847.15F9 (antibody, V domains shown) VH: QVQMKQSGPGLVQPSQSLSITCTVSGFSLINYGVHWVRQSPGKGLEWLGVIWSGGSTDYNAAFISRLSISKDNSKSQVFFKMNSLQADDTAIYYCARIYYYGRGYAMDYWGQGTSVTVSS VL: QIVLSQSPAILSASPGEKVTMTCRASSSVTYMYWYQQKPGSSPQPWIYATSNLASGVPARFSGSGSGTSYSLTISRVEAEDAATYYCQQWSSNPLTFGAGTKLELK	8.5%	16.6%	-178%	no binding				
847.2B8 (antibody, V domains shown) VH: QVQLKQSGPGLVQPSQSLSITCTVSGFSLINYGVHWVRQSPGKGLEWLGVIWSGGSTDYNAAFISRLSISKDNSKSQVFFKMNSLQADDTAIYYCARIYYYGRGYAMDYWGQGTSVTVSS VL: QILLSQSPAILSASPGEKVTMTCRASSSVTYMYWYQQKPGSSPQPWIYATSNLASGVPARFSGSGSGTSYSLTISRVEAEDAATYYCQQWSSNPLTFGAGTKLELK	7%			no binding				
847.4D3 (antibody, V domains shown) VH: EVQLVESGGGLVKPGGSLKLSCAASGFTFSSYAMSWVRQTPEKRLEWVASISSGDSPYYPDSVKGRFTISRDNARNILYLQMSSLRSEDTAMYYCTRFTTVVEMDYWGQGTSVTVSS VL: DVVMTQTPKFLPITAEDRVTITCKASQSVSNEVAWYQQKPGQSPKLLIYYASNRYTGVPDRFTGSGSGTDFTFTIRSVQLEDLAVYFCQQHYSSPWTFGGGTKLEIK	7.5%			no binding				
mIMT001 (antibody, mouse IgG2a, V domains shown, also called murine IMT1; mIMT1) VH: QIQLVQSGPELKKPGETVKISCKASGYTFTNYGMNWVKQAPGKGLKWMGWINTNTGEPTYVEEFKGRFAFSLETSASTAYLQINNLKNEDTATYFCAPYDNFFAYWGQGTLVTVSA VL: DIVITQDELSNPVTSGESVSISCRSSKSLLYKDGKTYLNWFLQRPGQSPQLLIYLMSTHASGVSDRFSGSGSGTDFTLEISRVKAEDVGVYYCQQLVDYPLTFGAGTKLELKR					> 95%			
TB001 (antibody, human IgG4 S228P, kappa, V domains shown) VH: QVQLVQSGSELKKPGASVKVSCKASGYTFTNYGMNWVRQAPGQGLKWMGWINTNTGEPTYVEEFTGRFVFSLETSVSTAYLQISSLKAEDTAVYFCAPYDNFFAYWGQGTTVTVSS VL: DIVLTQSPLSLPVTPGEPASISCRSSKSLLYKDGKTYLNWFLQKPGQSPQLLIYLMSTHASGVPDRFSGSGSGTDFTLKISRVEAEDVGVYYCQQLVDYPLTFGGGTKLEIKR	87.2%	45.6%	81.4%				509 nM	393 nM

Source: patent publication US20250243282A1 (TRUEBINDING, published 2025)
